Test results as given in patent US20150104459A1.

Experiments:
[1] = target: recombinant soluble homotrimeric HA, A/common magpie/Hong Kong/5052/07 (H5N1) (influenza A virus A/common magpie/Hong Kong/5052/2007 (H5N1)); experiment: microarray, trimeric HA, transfection supernatant; conditions: remark: other sources report otherwise
[2] = target: recombinant soluble homotrimeric HA of A/common magpie/Hong Kong/5052/07 (H5N1) (Influenza A virus A/common magpie/Hong Kong/5052/2007 (H5N1)); experiment: HA microarray, BCC supernatant; conditions: remark: other sources report otherwise

B1: TCN-542 (5079_A16) (antibody, V domains shown)
VH: QVQLQESGPGLVKPSQTLSLTCTVSGGSISSGNYYWNWVRQHPGKGLEWIGYIYYRGSTFYNPSLKSRVTISIDTSKNQFSLRLSSVTAADTAVYYCAKDTRSSLDNYQYGMDVWGQGTTVTVSS
VL: QTVVTQEPSLTVSPGGTVTLTCASSTGAVTSSYFPNWFQQKPGQAPRPLIYSTTIRHSWTPARFSGSLLGGKAALTLSGVQPEDEADYYCLLYSGGDPVAFGGGTKLTVL
[1]
  Trimeric HA Binding RLU: 1670 RLU

B2: TCN-521 (3280_D18) (antibody, V domains shown)
VH: EVQLVQSGGGLVQPGGSLRLACVVSGFTVTSNYITWVRQAPGKGLEWVSVIYSHGRAYYSASVNGRFTISRHTSKNTVYLEMNSLRPEDTAVYYCAGGGLVGGYDEYFFDYWGQGTLATVSS
VL: ETVLTQSPGTLSLTPGERATLSCRVGQSVSGSHLAWYQQKPGQAPRLLIYGASSRATGIPDRFGGSVSGTDFTLTISRLEPEDSAVYYCQQYGDSRYTFGQGTKLEIK
[2]
  Trimeric HA Binding RLU: 13500 RLU

B3: TCN-523 (5248_A17) (antibody, V domains shown)
VH: QVQLVQSGAEVKKPGSSVKVSCKASGGSFSNYAFSWVRQAPGQGLEWMGGTIPLLGTTNYAQKFQGRVTISADQFTSTAYMELGSLRSEDTAVYYCTRRKMTTAFDSWGQGTLVTVSS
VL: QPVLTQPPSASASLGASVTLTCTLSSAYSNYKVDWYQQRPGKGPRFVMRVGTGGIVGSKGDGIPDRFSVLGSGLNRYLTIKNIQEEDESDYHCGADHGSGSNFVSPYVFGGGTKLTVL
[2]
  Trimeric HA Binding RLU: 45800 RLU

B4: TCN-563 (5237_B21) (antibody, V domains shown)
VH: QVQLAQSGAEVKRPGSSVKVSCTASGGIFRKNAISWVRQAPGQGLEWMGGIIAVFNTANYAQKFQGRVKITADESGNTAYMELSSLRSDDTAVYYCASHPKYFYGSGSYPDFWGQGTLVTVSS
VL: QSALTQPRSVSGSPGQSVTISCTGSSSDVGASNSVSWYQQHPGKAPKLVIYDVTERPSGVPHRFSGSKSGNTASLTVSGLQPEDEADYFCCAYGGKYLVVFGGGTKVTVL
[2]
  Trimeric HA Binding RLU: 27500 RLU

B5: TCN-530 (5248_H10a) (antibody, V domains shown)
VH: QVQLVQSGAEVRKPGSSVKVSCKASGGPFMSYAIGWVRQAPGQGLEWMGGINPVFGRPHYAQKFQGRVTIATDDSTKTSYMELSSLTSEDTGMYYCASRYSRSSPGTFESWGQGTLVTVSS
VL: EIVMTQFPATLSVSPGERVTLSCRASQSVSNNLAWYQQKPGQPPRLLIYDASTRATGVPAKFSGTGSGTEFTLSISSLQSEDFAVYYCQQYHNWPPSYSFGLGTKLEIK
[2]
  Trimeric HA Binding RLU: 42500 RLU

B6: TCN-533 (5256_A17) (antibody, V domains shown)
VH: QVQLVQSGADVKKPGSSVTVSCKASGGSFSNYGINWVRQAPGQGLEWMGGIIPLINAPNYAPKFQGRVTITADMFSNIVSLQLTSLRTDDTAVYYCARRKMTTAIDYWGQGTLVTVSS
VL: QPVLSQPPSASASLGASVTLTCTLSSGFDNYQVAWYQQRPGKGPRFVMRVGNGGNVASKGDGIPDRFSVSGSGLNRYLTIKNIQEDDESDYYCGADHGSGNNFVSPYVFGGGTKLTVL
[2]
  Trimeric HA Binding RLU: 44500 RLU

B7: TCN-534 (5249_B02) (antibody, V domains shown)
VH: QVQLVQSGAEVKKPGSSVKVSCRESGGTFNGYTITWVRQAPGQGLEWMGGIIPMMGTVNYAQKLQGRVTITTDYFTKTAYMDLNNLRSEDTAMYYCVKIRYTGQQLLWGQGTLVTVSS
VL: DIQMTQSPSTLSASIGDRVTITCRASQSIASWLAWYQQKPGKAPKLLIYEAVNLESGVPSRFSGSGSGTDFTLTISSLQPDDFATYFCQHYGTISQTFGGGTKVEIK
[2]
  Trimeric HA Binding RLU: 32500 RLU

B8: TCN-551 (5243_D01) (antibody, V domains shown)
VH: EVQLVQSGSEVKKPGESLKISCKGSGYSFSNYWIGWVRHMPGKGLEWMGIIYPGDSDTRYSPSFQGQVTMSADKSSSTVYLQWSSLKASDTAIYYCARRGGHSFGYGSGGDTHSEFDSWGQGTLVTVSS
VL: QSVLTQSPSVSAAPGQKVTISCSGSDSNIGDYFVCWYQHLPGKPPQLLIYENNKRPSGIPDRFSGSKSGTSATLGITGIQTGDEADYYCATWDGSLSAWVFGGGTKLTVL
[2]
  Trimeric HA Binding RLU: 45700 RLU
